# Measured values as given in US12539289B2, “Phorbol ester compositions and methods of use for treating or reducing the duration of cytopenia” (BIOSUCCESS BIOTECH CO., LTD., priority 2014, dated 2026).
# Assays:
# Drug Induced Cytopenia = experiment: Drug induced cytopenia treated by TPA: blood cell counts after DNR + Ara-C; format: in vivo, mice; conditions: n = 10
# Experimental: Ninety (90) adult mice were randomly assigned to 9 groups (10 mice per group). No drug was administered in Control group. Model group was given DNR (6 mg/kg)+Ara-C (150 mg/kg) on Day 0. The rest of the 7 groups were given DNR (6 mg/kg)+Ara-C (150 mg/kg) on Day 0, and each group on Day 7, Day 8, and Day 9 was administered with one of the following drugs: G-CSF (10 μg/kg), EPO (500 IU/kg), TPA (12.5 μg/kg), TPA (25 μg/kg), TPA (50 μg/kg), TPA (12.5 μg/kg)+GCSF (10 μg/kg), or TPA (12.5 μg/kg)+EPO (500 IU/kg).
# neutropenia = experiment: Duration of neutropenia after high dose chemotherapy; format: in vivo; conditions: stated 'for example'
# Source text: For example, the duration of neutropenia after high dose chemotherapy and treatment with GCSF is, for example, about 24±3 days. The combination of TPA and GCSF reduces the duration of neutropenia to about 15±3 days, or about a 25% to 50% reduction in the duration of neutropenia.
# [1] = system: neutropenia and thrombocytopenia; experiment: AML (M2) patient case after DA regimen chemotherapy; format: in vivo, human
# Experimental: Patient, diagnosed with AML (M2). Patient's bone marrow myeloblast plus promyelocyte count was about 60%. After they received one standard course of DA regimen (7 Ara C+3 Daunorubicin), their peripheral WBC count dropped to 0.8×10^9/L. They were then administered 150 μg G-CSF each day. After chemotherapy, it took 12 days (duration of neutropenia and thrombocytopenia) to bring both their platelet count and WBC count, including the neutrophil count, back to normal. Their bone marrow myeloblast plus promyelocyte count was about 40%, still way above the normal value (0˜5%). Then, they received their second standard course of DA regimen. After the second course of DA regimen, their peripheral WBC count and platelet count dropped to 0.6×10^9/L and 80×10^9/L respectively. They were then administered TPA plus G-CSF (150 μg TPA followed with 150 μg G-CSF) each day of day 1 and day 2. On day 4 and day 5, they were administered with only 150 μg TPA each day. The WBC counts and neutrophil percentage* in parenthesis were 1.8×10^9/L (39%) on day 3, 6.5×10^9/L (72%) on day 7, and 5.7×10^9/L (77%) on day 14. The estimated duration of neutropenia after chemotherapy was shortened to about 5 days. The platelet counts were 330×10^9/L on day 3, 715×10^9/L on day 7, and 568×10^9/L on day 14. The estimated duration of thrombocytopenia after chemotherapy was shortened to less than 3 days. […]
# [2] = system: Human bone marrow cells from the same AML patient after chemotherapy; experiment: Colony formation of bone marrow hematopoietic cells in methyl cellulose semi-solid culture medium; format: cell-based
# Experimental: (§1) To explore the effect of TPA alone or combined rhG-CSF on bone marrow hematopoietic cells proliferation and colony formation ability which from patients of acute myeloid leukemia (AML) in the period of bone marrow suppression in vitro and to observe the effect of TPA on bone marrow stromal cells(BMSCs) proliferation or inhibition from patients of AML in the period of myelosuppression and the healthy persons.
# • 1) Human bone marrow cells from the same AML patient after chemotherapy were cultured by methyl cellulose semi-solid culture medium. Groups: Blank, TPA (10 ng/ml), G-CSF (50 ng/ml), TPA (10 ng/ml)+GCSF (50 ng/ml). The experiments were repeated for 4 times. • 2) The stroma cells of bone marrow from the healthy human and the AML patient after chemotherapy were cultured by methyl cellulose semi-solid culture medium. Different TPA concentrations were added. Groups: Blank, TPA (0.1 ng/ml), TPA (1.0 ng/ml), TPA (5 ng/ml), TPA (10 ng/ml), TPA (20 ng/ml), TPA (30 ng/ml). • 3) Cultivation of BMSCs from healthy persons and patients of AML in the bone marrow suppression phase in vitro, added to TPA of different concentrations, 0.1 ng/ml, 1.0 ng/ml, 5 ng/ml, 10 ng/ml, 20 ng/ml, 30 ng/ml, and set up a control to detect cell proliferation or inhibition with CCK8 method. Results and Conclusion: • 1. Compared the clones of four groups in incomplete medium, in the control group a small cell clusters can be seen for 24-72 hours, but the cells were dead as time prolong. Cultivated 14 days, control group have no clones formation, CFU-GM are dominated for G-CSF group, TPA alone and combination with G-CSF group have myeloid colony formation, while BFU-E and CFU-GEMM. […] Compared the clones of different concentration of TPA stimulation in incomplete medium, the total clones of 5 ng/ml, 10 ng/ml, 20 ng/ml group are higher than other groups, including 10 ng/ml in the highest, there are statistical significance (both P<0.05). While decreasing or increasing TPA concentration can not improve the colony number. The better concentration of TPA to stimulate the colony formation is 5˜20 ng/ml. […] Compared the clones of different concentration of TPA and G-CSF (50 ng/ml) stimulation in incomplete medium. Combination with G-CSF the better concentration of TPA is 1˜10 ng/ml (both P<0.05). Combination with G-CSF the best concentration of TPA is 5 ng/ml and 1 ng/ml. for CFU-GM and CFU-GEMM. The main clone types are myeloid colones, CFU-GM, also have CFU-GEMM and fewer BFU-E. • 4. […] While TPA group and G-CSF group the number of clones of TPA group and G-CSF group have no statistical significance (P=0.577). • 5. […] Meanwhile, TPA promote bone marroe stromal cells from the AML patients proliferation of concentration 5˜30 ng/ml (cell number 2×10^5/ml). 5 ng/ml of TPA is the best concentration of promoting proliferation, and G-CSF had no effect on the growth of BMSCs from healthy persons or AML patients.
# [3] = system: bone marrow stromal cells (BMSCs) from healthy persons; experiment: BMSC proliferation or inhibition, CCK8 method, healthy persons; format: cell-based, human; conditions: healthy persons
# Experimental: as §1
# (§2) • 1) Human bone marrow cells from the same AML patient after chemotherapy were cultured by methyl cellulose semi-solid culture medium. Groups: Blank, TPA (10 ng/ml), G-CSF (50 ng/ml), TPA (10 ng/ml)+GCSF (50 ng/ml). The experiments were repeated for 4 times. • 2) The stroma cells of bone marrow from the healthy human and the AML patient after chemotherapy were cultured by methyl cellulose semi-solid culture medium. Different TPA concentrations were added. Groups: Blank, TPA (0.1 ng/ml), TPA (1.0 ng/ml), TPA (5 ng/ml), TPA (10 ng/ml), TPA (20 ng/ml), TPA (30 ng/ml). • 3) Cultivation of BMSCs from healthy persons and patients of AML in the bone marrow suppression phase in vitro, added to TPA of different concentrations, 0.1 ng/ml, 1.0 ng/ml, 5 ng/ml, 10 ng/ml, 20 ng/ml, 30 ng/ml, and set up a control to detect cell proliferation or inhibition with CCK8 method. Results and Conclusion: • 1. […]
# [4] = system: bone marrow stromal cells (BMSCs) from patients of AML in the bone marrow suppression phase; experiment: BMSC proliferation or inhibition, CCK8 method, AML patients; format: cell-based, human
# Experimental: as §1, §2
# [5] = 8 days after DNR + Ara-c, 1 day after 1st dose, G-CSF 10, EPO 500, TPA 12.5, TPA + GCSF 12.5 + 10, TPA + EPO 12.5 + 500 (μg·kg^−1)
# [6] = 9 days after DNR + Ara-c, 1 day after 2nd dose, G-CSF 10, EPO 500, TPA 12.5, TPA + GCSF 12.5 + 10, TPA + EPO 12.5 + 500 (μg·kg^−1)
# [7] = 10 days after DNR + Ara-c, 1 day after 3rd dose, G-CSF 10, EPO 500, TPA 12.5, TPA + GCSF 12.5 + 10, TPA + EPO 12.5 + 500 (μg·kg^1)
Molecule,PLT (Drug Induced Cytopenia; [5]),RBC (Drug Induced Cytopenia; [5]),WBC (Drug Induced Cytopenia; [5]),PLT (Drug Induced Cytopenia; [6]),RBC (Drug Induced Cytopenia; [6]),WBC (Drug Induced Cytopenia; [6]),PLT (Drug Induced Cytopenia; [7]),RBC (Drug Induced Cytopenia; [7]),WBC (Drug Induced Cytopenia; [7]),duration of neutropenia (neutropenia),bone marrow myeloblast plus promyelocyte count ([1]; after first DA course and 150 μg G-CSF each day),"duration of neutropenia and thrombocytopenia ([1]; after first DA course, 150 μg G-CSF each day)","colony types whose formation is promoted (CFU-GM, CFU-GEMM, BFU-E) ([2]; bone marrow of AML patients in the period of bone marrow suppression, in vitro)","total number of clones ([2]; incomplete medium, cultivated 14 days, TPA 10 ng/ml, G-CSF 50 ng/ml)",effect on the growth of BMSCs [3],effect on the growth of BMSCs [4]
"EPO: erythropoietin, a glycoprotein hormone that controls erythropoiesis, or red blood cell production",385 ± 19.28^(1)(1)(2)(2) ×10^9/L,7.32 ± 0.10^(1)(1)(2)(2) ×10^12/L,3.7 ± 0.69^(1)(1) ×10^9/L,935 ± 43.57^(1)(1)(2)(2) ×10^9/L,6.75 ± 0.69^(1)(1)(2) ×10^12/L,5.52 ± 0.34^(1)(1) ×10^9/L,1469 ± 75.67^(2)(2) ×10^9/L,8.51 ± 0.86^(1)(1)(2)(2)(3)(3) ×10^12/L,6.45 ± 0.41^(3)(3) ×10^9/L,–,–,–,–,–,–,–
"G-CSF: granulocyte-colony stimulating factor, a glycoprotein that stimulates the bone marrow to produce granulocytes and stem cells (protein, UniProt P09919 31-207, looked up) Granulocyte …: TPLGPASSLPQSFLLKCLEQVRKIQGDGAALQEKLVSECATYKLCHPEELVLLGHSLGIPWAPLSSCPSQALQLAGCLSQLHSGLFLYQGLLQALEGISPELGPTLDTLQLDVADFATTIWQQMEELGMAPALQPTQGAMPAFASAFQRRAGGVLVASHLQSFLEVSYRVLRHLAQP",373 ± 76.27^(1)(1)(2)(2) ×10^9/L,4.94 ± 0.42^(1)(1) ×10^12/L,5.3 ± 0.62^(1)(2)(2) ×10^9/L,949 ± 65.88^(1)(1)(2)(2) ×10^9/L,5.40 ± 0.46^(1)(1) ×10^12/L,6.95 ± 0.44^(2) ×10^9/L,1456 ± 91.76^(2)(2) ×10^9/L,5.30 ± 0.34^(1)(1) ×10^12/L,9.14 ± 0.67^(1)(1)(2)(2) ×10^9/L,about 24±3 days,about 40%,12 days,"promoted the formation of CFU-GM, but had no effect on CFU-GEMM and BFU-E",higher than control group,had no effect,had no effect
